Assay results published in PMC5498155 (Bioorganic & medicinal chemistry, 2016).
Entries after “also recorded” stand apart in the source; their conditions may differ.

Target: CXCR4 (Homo sapiens, UniProt P61073)
Assay: Competitive CXCR4 binding assay
Conditions: CHO cells stably transfected with CXCR4; 12G5 antibody competition

Chain of CXCR4 (P61073 whole entry): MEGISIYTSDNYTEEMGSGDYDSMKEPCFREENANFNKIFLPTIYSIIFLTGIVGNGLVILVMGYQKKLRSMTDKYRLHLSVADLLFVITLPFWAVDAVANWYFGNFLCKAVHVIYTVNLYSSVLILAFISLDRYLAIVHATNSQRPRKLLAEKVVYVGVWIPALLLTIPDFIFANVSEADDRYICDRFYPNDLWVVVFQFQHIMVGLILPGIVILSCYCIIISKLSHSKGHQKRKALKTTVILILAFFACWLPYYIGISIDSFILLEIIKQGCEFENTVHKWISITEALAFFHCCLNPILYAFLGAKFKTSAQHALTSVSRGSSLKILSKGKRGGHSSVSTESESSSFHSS

Substance: SDF-1α1–8 (KPVSLSYR) [ligand 19]
- CXCR4 binding activity (in words): very low CXCR4 binding affinity; also recorded: No binding
